Test results from article PMC11655906.
Values joined by “and” are separate entries in the source; they are usually repeats but may differ in a detail not shown here. Identical values can stand only once.

Target: mouse Flower isoform 4 with C-terminal mTFP (mFwe4-mTFP) (mouse)
Assay: native gel or EMSA; native PAGE (4-16% Bis-Tris, G-250 additive) of lysates of transfected Fwe KO mouse CTLs (modified RIPA: 50 mM Tris pH 7.5, 50 mM NaCl, 1% Triton-X-100, 1 mM EDTA), western blot with anti-DsRed recognising mTFP; oligomeric state read from band size

mouse Flower isoform 4 with C-terminal mTFP (mFwe4-mTFP) (natural protein), sequence (Q8BG21 whole entry, canonical isoform): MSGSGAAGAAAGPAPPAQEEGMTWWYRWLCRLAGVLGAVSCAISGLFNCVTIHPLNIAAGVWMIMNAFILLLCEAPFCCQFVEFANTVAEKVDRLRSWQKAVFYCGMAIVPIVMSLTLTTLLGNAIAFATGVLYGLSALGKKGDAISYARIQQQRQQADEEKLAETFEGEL

stoichiometry N: 4 and 6
Substance: mouse Flower isoform 4 with C-terminal mTFP (mFwe4-mTFP) (natural protein)
